{"source": "paper PMC8034803", "key": {"PABP1 (Homo sapiens)": {"target": "PABP1 (Homo sapiens) (UniProt P11940)", "sequence (P11940 whole entry)": "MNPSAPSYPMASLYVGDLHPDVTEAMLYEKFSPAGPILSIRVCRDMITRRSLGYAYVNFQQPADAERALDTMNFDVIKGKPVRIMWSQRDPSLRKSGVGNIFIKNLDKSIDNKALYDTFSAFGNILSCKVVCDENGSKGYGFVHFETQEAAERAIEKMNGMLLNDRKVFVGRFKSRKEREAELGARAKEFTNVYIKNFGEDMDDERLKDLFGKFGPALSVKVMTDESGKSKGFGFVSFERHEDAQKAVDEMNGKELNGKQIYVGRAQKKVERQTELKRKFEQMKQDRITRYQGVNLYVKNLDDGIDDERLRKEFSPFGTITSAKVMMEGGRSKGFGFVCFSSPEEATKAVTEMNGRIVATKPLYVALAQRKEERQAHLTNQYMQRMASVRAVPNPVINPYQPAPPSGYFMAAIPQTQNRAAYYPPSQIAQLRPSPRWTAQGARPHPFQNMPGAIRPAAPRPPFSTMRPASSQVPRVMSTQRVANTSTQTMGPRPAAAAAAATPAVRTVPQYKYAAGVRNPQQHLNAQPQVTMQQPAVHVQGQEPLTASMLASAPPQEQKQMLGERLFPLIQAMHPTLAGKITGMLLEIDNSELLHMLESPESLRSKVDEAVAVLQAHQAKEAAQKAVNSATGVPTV", "settings": "cited from earlier work"}, "PABP1 [1]": {"target": "T1, PABP1 (human, UniProt P11940 1-636)", "T1 sequence (P11940 whole entry)": "as above", "assay": "EMSA"}, "PABP1 [2]": {"target": "T1, PABP1", "assay": "EMSA", "remark": "listed apart in the source"}, "WT NS1-RBD": {"target": "WT NS1-RBD (Influenza A virus A/Udorn/307/1972 …, UniProt P03495 1-73)", "sequence (P03495 1-73)": "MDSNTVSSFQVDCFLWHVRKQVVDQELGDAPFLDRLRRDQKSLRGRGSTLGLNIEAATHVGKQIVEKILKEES", "assay": "fluorescence anisotropy"}, "PABP1 [3]": {"target": "T1, PABP1", "assay": "EMSA", "remark": "listed apart in the source"}}, "note": "Read-outs that look alike come from different tables or passages of the source."}
{"molecule": "NS1 (from UniProt Q8QPI8)", "values": [{"measurement": "Kd", "setting": "PABP1 (Homo sapiens)", "result": 20, "unit": "nM"}]}
{"molecule": "poly(A)60 (ssRNA) RNA: AAAAAAAAAAAAAAAAAAAAAAAAAAAAAAAAAAAAAAAAAAAAAAAAAAAAAAAAAAAA", "values": [{"measurement": "binding result", "setting": "PABP1 [1]", "result": "binds"}]}
{"molecule": "GCUAUCCAGAUUCUGAUU (ssRNA)", "note": "[ssCR1]", "values": [{"measurement": "binding result", "setting": "PABP1 [2]", "result": "no binding"}]}
{"molecule": "dsRK1 (dsRNA) RNA 1: CCAUCCUCUACAGGCG RNA 2: CGCCUGUAGAGGAUGG", "values": [{"measurement": "Kd", "setting": "WT NS1-RBD", "result": "76 ± 9", "unit": "nM"}]}
{"molecule": "AAAAAAAAAAAAAAAAAA (ssRNA)", "note": "[poly(A)18]", "values": [{"measurement": "binding result", "setting": "PABP1 [3]", "result": "binds"}]}
